Target: HBcS-NadA-CFHbp (Hepatitis B Virus | Neisseria meningitidis strain MC58) (UniProt Q9JXV4)
Assay: cryo-EM structure; single particle cryoelectron microscopy of purified HBcS-NadA-CFHbp VLPs; 3.4 Å map; HBc T = 4 crystal structure fitted and refined; method details in Supplementary Materials

With “HBcS-NadA-CFHbp (from UniProt Q9JXV4 157-274)” the stoichiometry N was 240 copies.

Source: PMC7113836
